Test system: T1, PiggyBac transposase with c-myc NLS
T1 sequence: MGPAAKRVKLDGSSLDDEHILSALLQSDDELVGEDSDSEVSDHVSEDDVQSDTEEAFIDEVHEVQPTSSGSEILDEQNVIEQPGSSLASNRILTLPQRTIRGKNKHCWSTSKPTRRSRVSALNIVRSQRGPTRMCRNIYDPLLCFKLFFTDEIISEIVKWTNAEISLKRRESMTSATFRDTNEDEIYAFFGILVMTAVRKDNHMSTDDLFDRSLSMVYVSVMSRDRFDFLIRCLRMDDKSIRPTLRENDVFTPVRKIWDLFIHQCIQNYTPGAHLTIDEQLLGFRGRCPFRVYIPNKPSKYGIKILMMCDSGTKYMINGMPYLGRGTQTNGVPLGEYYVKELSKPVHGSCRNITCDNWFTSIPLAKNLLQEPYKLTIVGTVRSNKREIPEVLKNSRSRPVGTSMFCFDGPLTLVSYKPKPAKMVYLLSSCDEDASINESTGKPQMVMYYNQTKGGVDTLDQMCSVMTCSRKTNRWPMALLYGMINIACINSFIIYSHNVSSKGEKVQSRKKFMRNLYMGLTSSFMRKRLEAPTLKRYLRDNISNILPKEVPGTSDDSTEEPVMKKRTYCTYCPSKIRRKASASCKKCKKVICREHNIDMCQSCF
Assay: cell_activity
Conditions: pNB328-EGFP in Jurkat cells after 3 passages; both terminal repeats present together; K562 40.54%, primary T 56.9%, mouse ES 73.12%

| Sequence | activity (% EGFP positive cells) |
| --- | --- |
| GCATGCGTCAATTTTACGCAGACTATCTTTCTAGGGTTAA (double strand) [PiggyBac 3'-terminal repeat] | 36.4 |
| TTAACCCTAGAAAGATAATCATATTGTGACGTACGTTAAAGATAATCATGCGTAAAATTGACGCATG (double strand) [PiggyBac 5'-terminal repeat] | 36.4 |
